The supplement of paper PMC9170038

Tested on: MS2 coat protein
Test: apparent KD of MS2 coat protein; designed switch direction (-1 OFF switch, 1 ON switch): 1; higher = weaker reporter binding
How it was run: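 Transcription of designed RNA switches on Illumina chips was done by stalled E. coli RNA polymerase. SNAP-549-labelled MS2 coat protein was then titrated in doubling steps from 0.7 or 1.5 nM to 3 µM, with steps of 0.8–1.5 h at the lowest and 10–20 min at the highest concentration. The per-design median over clusters of curve-fitted normalised fluorescence is reported as apparent KD.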

[1] = Eterna round: R95, input ligand: FMN 200 uM
[2] = Eterna round: R95, input ligand: microRNA oligo, concentration not stated
[3] = Eterna round: R95, input ligand: none
[4] = input ligand: microRNA oligo, concentration not stated

Row | Sequence | apparent KD of MS2 coat protein [1] [nM] | apparent KD of MS2 coat protein [2] [nM] | apparent KD of MS2 coat protein [3] [nM] | apparent KD of MS2 coat protein (input ligand: FMN 200 uM) [nM] | apparent KD of MS2 coat protein [4] [nM] | apparent KD of MS2 coat protein (input ligand: none) [nM]
1 | CGUCCGGCCUGUGCUGGCCGGUUGCUUGUACAUGAGGAUCACCCAUGUUCUUGUGCUGGCUUUUUGCUCGUCUUGUG [salish99_mir208a_019] (puzzle: Sensor for hsa-mir-208a) | 31.5 | 19.2 | 37.8 | – | – | –
2 | CGUUGGACAUCCAGCAAGACAUGAGGAUCACCCAUGUAGGCGCAGGAUAUGCGGGUUCGGUGCUCGCAGAAGGGUGAAGAAAAC [Araerar] (Eterna round: R96, puzzle: Same State NG 3) | – | – | – | 35.5 | 21.3 | 30.4
3 | CUAUCUACAGGUUGCAGUGCUCGUCUUAUACAUGAGGAUCACCCAUGUUAUAGCCCGGUGCUUGCGCUGGGCUGAUU [JL ViennaUCT Tearor mod 2] (Eterna round: R96, puzzle: Sensor for hsa-mir-208a) | – | – | – | 40.9 | 16.4 | 41.1
4 | CUAUCUACAGGUUGCAGUGCUCGUCUUAUACAUGAGGAUCACCCAUGUUAUAGCCCGGUGCUUGCGCUGGGCUGAUU [JL ViennaUCT Tearor mod 2] (puzzle: Sensor for hsa-mir-208a) | 36.4 | 16.4 | 43 | – | – | –
5 | CUCAACAACACAGGAUAUCCAGGGAAAAGACCUGGAGAAGGGUGACCAACAUGAGGAUCACCCAUGUGACAGCCAGGCUGUCUG [Esisiszaon] (Eterna round: R96, puzzle: Same State NG 1) | – | – | – | 164 | 84.4 | 47.7
6 | CUCCCACGUGCACAGGAUAUGCCGGGAUGCACAUGAGGAUCACCCAUGUAAUCCUGAAAAUAAAAGCAGAAGGGUGAUCAUGGGU [Teestege] (puzzle: Same State 2) | 36.1 | 11.6 | 10.2 | – | – | –
7 | CUGAAAUGUCAAGGAUAUCACGUCGAUUAGACGUGAGAAGGUGAUCUGCACAUGAGGAUCACCCAUGUGUUACAUGGGAGUCAG [Brourd's SSNG1/1-A2 mod 16] (Eterna round: R96, puzzle: Same State NG 1) | – | – | – | 600 | 324 | 891
8 | CUGAGCAAGCAAGGAUAUCACGUCGAUUAGACGUGAGAAGGUGCUCCUUACAUGAGGAUCACCCAUGUAUAACAUGAAGCUCAG [SSNG1/10-A2] (Eterna round: R96, puzzle: Same State NG 1) | – | – | – | 190 | 902 | 1090
9 | CUGAGCAGUCAAGGAUAUCACGUCGAAUAGACGUGAGAAGGUGACCAAUACAUGAGGAUCACCCAUGUAAUACAUGAAGCUCAG [SSNG1/12-A1] (Eterna round: R96, puzzle: Same State NG 1) | – | – | – | – | 26 | –
10 | CUGAGCAGUCAAGGAUAUCACGUCGUUUAGACGUGAGAAGGUGACCAAUACAUGAGGAUCACCCAUGUAAUACAUGAAGCUCAG [SSNG1/12-A3] (Eterna round: R96, puzzle: Same State NG 1) | – | – | – | 16.2 | 17.8 | 37.2
11 | CUGAGCGAUCAAGGAUAUCACGUCGUUUAGACGUGAGAAGGUGAUCAUAACAUGAGGAUCACCCAUGUAUUACAUGAAGCUCAG [SSNG1/2-A3] (Eterna round: R96, puzzle: Same State NG 1) | – | – | – | 208 | 462 | 1240
12 | CUGAGCGAUUAAGGAUAUCACGUCGAAUAGACGUGAGAAGGUGAUCAUAACAUGAGGAUCACCCAUGUAUUACAUGAAGCUCAG [SSNG1/3-A1] (Eterna round: R96, puzzle: Same State NG 1) | – | – | – | 305 | 100 | 108
13 | CUGCUACAUGAGGAUCACCCAUGUUGGAGUGAUGCAGGAUAUGUGGGACCAGAAGAUGAAACAGAAGGGCAAGGAG [JR_SS!_Sub006] (puzzle: Same State 1) | 110 | 95.7 | 152 | – | – | –
14 | CUGUCUACAGGUGUCUUUGCUCGUUUUAUACAUGAGGAUCACCCAUGUUAUAGCCCGGUGCUUGCGCUGGGCUGAUU [JL ViennaUCT Tearor mod 8] (puzzle: Sensor for hsa-mir-208a) | 66.8 | 14.1 | 63 | – | – | –
15 | CUUAUUAAUGCAGGAUAUGAUUAACAUGAGGAUCACCCAUGUGGUGUUGUGAGUAAGGAGAGUGAUCAGAAGGGCAUUUUUUUU [JMF's solution 41] (Eterna round: R96, puzzle: Same State NG 2) | – | – | – | 711 | 410 | 656
16 | CUUUAUCACUAUACAUGAGGAUCACCCAUGUUAUCAUCAUGAGAGGAUAUCGUAUUUGGAUUUUUCGAGAAGGCUCUAUUGUAU [JR_SSNG3_Sub077] (Eterna round: R96, puzzle: Same State NG 3) | – | – | – | – | 158 | –

Row | Sequence | apparent KD of MS2 coat protein [1] [nM] | apparent KD of MS2 coat protein [2] [nM] | apparent KD of MS2 coat protein [3] [nM] | apparent KD of MS2 coat protein (input ligand: FMN 200 uM) [nM] | apparent KD of MS2 coat protein [4] [nM] | apparent KD of MS2 coat protein (input ligand: none) [nM]
17 | CUUUCUCUUGCAGGAUAUCCUAGUCUUCGGUUAGGAGAAGGGCAAGGAAAUUUGCUAAGCAAGUCUGUAACAGAGAUCCUCCUC [pwkr ssNG1 F9.1] (Eterna round: R96, puzzle: Same State NG 1) | – | – | – | 30.8 | 313 | 37.9
18 | GAAAAACAUGAGGAUCACCCAUGUAAAAAAAUGGGAGGAUAUACAAAGACGAAAGUCAAAGUAGAAGGCCUGAAAG [same state 2] (Eterna round: R96, puzzle: Same State 1) | – | – | – | – | 42.7 | –
19 | GAAUAAAUGAUAGGAUAUACAUGAGGAAUUCUCGUAGAAGGAUCAUGACAUGAGGAUCACCCAUGUAACGCUCGAAAGAGCGUA [Mat - Same State NG 1 - JL mod - D41] (Eterna round: R96, puzzle: Same State NG 1) | – | – | – | 607 | 733 | 928
20 | GACAAUCUAUCUCAGGAUAUCAUGUCAAAGACAUGAGGAUCACCCAUGUACCAGGAAACUGGUUAUGAGAAGGGAGAUAGAUUGA [Mat - Same State 2 - Mod - D26] (puzzle: Same State 2) | 264 | 142 | 427 | – | – | –
21 | GACAAUCUAUCUGAGGAUAUCAUGAAAAAAACAUGAGGAUCACCCAUGUGCAGGAAAACUGCAUAUGAGAAGGCAGAUAGAUUGC [salish99_SS2_r3_012] (Eterna round: R96, puzzle: Same State 2) | – | – | – | – | 429 | –
22 | GACAAUCUAUCUGAGGAUAUCAUGAAAAAAACAUGAGGAUCACCCAUGUGCAGGAAAACUGCAUAUGAGAAGGCAGAUAGAUUGC [salish99_SS2_r3_012] (puzzle: Same State 2) | 34.1 | 443 | 781 | – | – | –
23 | GACAAUCUAUCUGAGGAUAUCAUGAGAAUAACAUGAGGAUCACCCAUGUGCAGGAAAACUGCAUAUGAGAAGGCAGAUAGAUUGA [Mat - Same State 2 - Mod - D15] (puzzle: Same State 2) | 48.2 | 567 | 603 | – | – | –
24 | GACCGCGAGGAAGGAUAUGGAGCCUUAUUGGCUCCAGAAGGUCCAUAAAGGACAUGAGGAUCACCCAUGUGGGUUGAAGCGGUC [Fiskers NG1ss - 38] (Eterna round: R96, puzzle: Same State NG 1) | – | – | – | 24.6 | 125 | 173
25 | GAGAAGAGGGACAAGGAUAUGUCAGGAGAGACAUGAGGAUCACCCAUGUAGAGGUUGGAGGAGAGACAGAAGGUGUCGGGAGCGA [JR_SS2_Sub013] (puzzle: Same State 2) | 86.8 | 73.7 | 109 | – | – | –
26 | GAGAGACGAUUAGGAUAUCCGGUGAUAAUGAUAGGAGAAGGAAUUGACAUGAGGAUCACCCAUGUAGGAAUAAUCCAGAGAGAG [Parity 25 - Jieux - Same State NG 1] (Eterna round: R96, puzzle: Same State NG 1) | – | – | – | 51.5 | 28.5 | 48.8
27 | GAGCCAGUCCGAGGAUAUUACAUGAGGAUCACCCAUGUAGGCUCAGAAAAGAAAAGAGAGCCUUGGGAGAAGGCGGACUGGCUC [Xeonanisa<<9] (Eterna round: R96, puzzle: Same State NG 2) | – | – | – | 8.19 | 20.1 | 39.1
28 | GAGGGACAGACCAACAUGAGGAUCACCCAUGUCCUCGCAGGUCAGGAUAUCCGGCCAACAGGCAAGGAGAAGGGACGGUGAACC (Eterna round: R96, puzzle: Same State NG 3) | – | – | – | 418 | 344 | 479
29 | GAGGGACAUGAGGAUCACCCAUGUGGAGGGAGUAAAGGAUAUUAGUGUGGGAAAGUAGGGUAAGAAGGUUGAUUGG [JR_SS1_Sub084] (puzzle: Same State 1) | 103 | 74.9 | 209 | – | – | –
30 | GAGGGCGAAAGCAACAUGAGGAUCACCCAUGUUGUCGAAAGGCAGGAUAUCCGGCGAAAGCAGAAGGAGAAGGGUCGAAAAGAA [AK SSNG3-V2-40] (Eterna round: R96, puzzle: Same State NG 3) | – | – | – | 14.5 | 19.7 | 24.9
31 | GAGGGCGAAAGCGACAUGAGGAUCACCCAUGUCCUCGGAGGGCAGGAUAUCCGGCAAAAGCCGAAGGAGAAGGGUCGAAAAGAA [AK SSNG3-V2-38.1] (Eterna round: R96, puzzle: Same State NG 3) | – | – | – | 66.4 | 26 | 41.1
